Assay results reported in the supplement of paper PMC9732359.
± gives the uncertainty stated by the source.

Test: protein stability index of a GFP-peptide fusion (yeast GPS) (PSI 1-4); higher = more stable; sorted into four equal gates, so the index is relative within each strain
How it was run: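 Sequencing reads from sorted gates were used to score each peptide. The library consisted of tiled 17-residue yeast protein peptides fused downstream of GFP on a Cherry-expressing plasmid, pooled and carried in yeast. Mid-log cultures in leucine-free medium were split into four equal gates by GFP/Cherry ratio, and each gate's plasmids were PCR-amplified and Illumina-sequenced. The protein stability index adds up, over all gates, the read frequency multiplied by the gate number.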

Row | Sequence | protein stability index (doa10∆) | protein stability index (pdr5∆) | protein stability index (san1∆) | protein stability index (ubr1∆)
1 | VAADGKLVTYIVKFKQK [YLR335W/NUP2] | 2.17 ± 0.059 | 2.11 ± 0.054 | 2.09 ± 0.064 | 2.02 ± 0.05
2 | TVQENELLKSSLQKAGS [AAR2] | 3.17 ± 0.11 | 3.21 ± 0.088 | 3.01 ± 0.073 | 3.13 ± 0.084
3 | TATLAWGVNLPAHTVII [BRR2] | 1.26 ± 0.065 | 1.4 ± 0.067 | 1.81 ± 0.089 | 1.79 ± 0.064
4 | CSNESFASIPVSNSISR [SNU114] | 2.55 ± 0.069 | 2.67 ± 0.057 | 2.46 ± 0.078 | 2.7 ± 0.062
5 | GTWSAKEAVFKSLGVKS [FAS2] | 2.94 ± 0.088 | 3.34 ± 0.089 | 3.23 ± 0.1 | 2.88 ± 0.094
6 | AQKRVVSYMMPSLYRLL [SRB8] | 1.18 ± 0.11 | 1.19 ± 0.067 | 1.1 ± 0.12 | 1.29 ± 0.053
7 | VKCKMSALQQIMYQQML [SNF2] | 2.8 ± 0.11 | 2.56 ± 0.14 | 2.72 ± 0.12 | 2.8 ± 0.074
8 | TIFSVMVEWLESRSFSP [PRP8] | 2.13 ± 0.077 | 1.99 ± 0.094 | 2.15 ± 0.15 | 1.88 ± 0.059
9 | EFFHLQHYLDTATAPRL [QCR6] | 2.98 ± 0.057 | 3.03 ± 0.043 | 2.72 ± 0.058 | 3 ± 0.069
10 | GTLGEIFIRCNNVLYIR [SMX3] | 3.57 ± 0.21 | 3.27 ± 0.1 | 2.9 ± 0.1 | 3.26 ± 0.1
11 | SHTGLVRKYDLNICRQC [RPS29B] | 2.18 ± 0.052 | 2.51 ± 0.068 | 1.94 ± 0.092 | 2.09 ± 0.088
12 | DPQHKAIRRDARYNWIC [RPL15A] | 2.86 ± 0.088 | 3.31 ± 0.12 | 2.92 ± 0.16 | 3.11 ± 0.16
13 | VTKDLKLRREDEIIVYA [REC8] | 2.8 ± 0.069 | 2.73 ± 0.05 | 3.18 ± 0.056 | 2.96 ± 0.044
14 | RNQEKKMEKKKSSSLSL [SNM1] | 3.53 ± 0.22 | 3.5 ± 0.16 | 2.68 ± 0.22 | 2.98 ± 0.1
15 | NDNNLKKLESQESLVKL [RPN5] | 3.01 ± 0.071 | 2.96 ± 0.064 | 2.76 ± 0.06 | 2.97 ± 0.071
16 | YGFEDESAPITAEDSWA [RPB2] | 3.06 ± 0.058 | 3.16 ± 0.055 | 3.35 ± 0.042 | 3.17 ± 0.053
17 | TAAEKKERLTKEAAAIA [RPL8B] | 2.15 ± 0.072 | 2.25 ± 0.09 | 1.91 ± 0.11 | 2.33 ± 0.05
18 | RERIKRGAHVEKTMVKK [PRP8] |  |  |  | 2.78 ± 0.18
19 | GTGRAVARIPRVGGGGT [RPL4A] |  |  | 2.68 ± 0.21 | 
20 | EDLFETISQALLNAADR [PUP3] | 2.81 ± 0.12 | 2.01 ± 0.089 | 1.89 ± 0.16 | 1.92 ± 0.067
21 | PSAEIREAYIENFAKGE [SWP82] | 2.39 ± 0.073 | 2.63 ± 0.084 | 2.58 ± 0.1 | 2.4 ± 0.064
22 | TGVSVEAVDDVFQAKMM [RPN11] | 2.8 ± 0.14 | 3.06 ± 0.12 | 2.92 ± 0.082 | 2.87 ± 0.13
23 | DVQVDAEEKREAVIDEK [ITC1] |  | 2.32 ± 0.18 |  | 2.6 ± 0.13
24 | ANLEDIIFEIEKPLVVP [RRP6] | 2 ± 0.085 | 2.79 ± 0.094 | 2.62 ± 0.08 | 2.03 ± 0.11
25 | ANNIVNIVSDAGANDTS [GRR1] | 3.2 ± 0.12 | 3.14 ± 0.074 | 3.64 ± 0.1 | 3.13 ± 0.094
26 | GTSLKVAPVSEIVNMVP [SIR2] | 2.24 ± 0.089 | 2.65 ± 0.089 | 2.7 ± 0.069 | 2.37 ± 0.058
27 | QVLSQSADPSLLIDQFS [SWI1] | 3.03 ± 0.1 | 2.96 ± 0.073 | 3.02 ± 0.084 | 2.99 ± 0.057

Row | Sequence | protein stability index (doa10∆) | protein stability index (pdr5∆) | protein stability index (san1∆) | protein stability index (ubr1∆)
28 | LKKGEQKTQELNAKYQS [ISW2] | 3.31 ± 0.063 | 3.22 ± 0.047 | 3.29 ± 0.039 | 3.29 ± 0.055
29 | VKVKVSYQKLLKNYVLN [PRP8] | 1.33 ± 0.043 | 1.36 ± 0.035 | 1.46 ± 0.062 | 1.63 ± 0.036
30 | TLFVRDQDSAVVSSNIK [QCR2] | 2.67 ± 0.23 | 2.52 ± 0.2 |  | 2.67 ± 0.17
31 | LVLGEVSKKELYAIKKV [BRR2] | 1.68 ± 0.073 | 2.37 ± 0.096 | 3.13 ± 0.079 | 1.83 ± 0.08
32 | KIESEDDYILSGESVMD [SRB4] | 3.4 ± 0.17 | 3.5 ± 0.1 | 3.38 ± 0.15 | 2.96 ± 0.075
33 | HRDAYSGGSVNLYHVTE [PRE2] | 2.81 ± 0.11 | 3.32 ± 0.086 | 3 ± 0.07 | 3.03 ± 0.073
34 | CLEACSFILSSLEDPQV [YDL116W/NUP84] | 2.68 ± 0.048 | 2.71 ± 0.054 | 2.87 ± 0.038 | 2.75 ± 0.042
35 | ERDEQKRAEKKAKERLQ [SNF2] | 3.29 ± 0.12 | 3.45 ± 0.16 | 2.98 ± 0.13 | 3.4 ± 0.12
36 | NPEEVEQVAEEAAAAEE [RPS0B] | 3.07 ± 0.092 | 3.03 ± 0.11 | 2.95 ± 0.12 | 3.26 ± 0.071
37 | LIIIAANTPVLRKSELE [RPL30] | 2.2 ± 0.11 | 2.68 ± 0.14 | 2.31 ± 0.094 | 2.77 ± 0.13
38 | EGHDWKAPTKLDDPEAV [DIS3] | 3.31 ± 0.057 | 3.28 ± 0.054 | 3.23 ± 0.041 | 3.25 ± 0.046
39 | ALSQSSLLKTKLKQQSS [RRI1] | 2.13 ± 0.037 | 2.51 ± 0.035 | 2.22 ± 0.048 | 2.26 ± 0.035
40 | FDSVIVENLTVAQECIA [SMC1] | 1.69 ± 0.089 | 1.62 ± 0.11 | 1.84 ± 0.15 | 1.27 ± 0.061
41 | PNLNMKYRKRQLVTREA [FAS2] | 3.68 ± 0.15 | 3.13 ± 0.11 | 3 ± 0.095 | 3.05 ± 0.081
42 | NVNETMSRSLANGIINV [SMC3] | 2.75 ± 0.074 | 2.76 ± 0.061 | 2.96 ± 0.081 | 2.73 ± 0.057
43 | KDVKAWAGKRLWDQDIA [COR1] | 3.52 ± 0.11 | 3.4 ± 0.11 | 3.27 ± 0.061 | 3.2 ± 0.091
44 | DISAMQPVNPKPFLKGL [SMX3] | 3.12 ± 0.067 | 3.18 ± 0.068 | 3.2 ± 0.051 | 3.22 ± 0.053
45 | TCSSDQHIKVFKLDKDT [YGL100W/SEH1] | 3 ± 0.098 | 3.07 ± 0.087 | 3.46 ± 0.087 | 3.43 ± 0.097
46 | STPDQRKRVYNIKFLSK [ESC2] | 3.34 ± 0.22 |  | 2.81 ± 0.08 | 2.93 ± 0.12
47 | NSAIIQNLRKELLIYKK [YIL149C/MLP2] | 3.14 ± 0.084 | 2.6 ± 0.11 | 3.23 ± 0.078 | 3.14 ± 0.053
48 | SAKNRVVILARAKALGI [RPL32] | 1.69 ± 0.05 | 1.74 ± 0.061 | 1.76 ± 0.081 | 2.05 ± 0.042
49 | STKRVTKHPSLKTLTHK [POP7] | 2.56 ± 0.062 | 2.78 ± 0.06 | 2.56 ± 0.083 | 2.64 ± 0.061
50 | LVASAKGLQTVVVEEDA [RPL31A] | 2.48 ± 0.091 | 2.51 ± 0.1 | 2.54 ± 0.087 | 2.42 ± 0.085
51 | SHVENLEEKLYQMQSNY [YIL149C/MLP2] | 2.45 ± 0.051 | 2.84 ± 0.05 | 2.54 ± 0.05 | 2.86 ± 0.044
52 | KDVAKPTGPKTAIDKNG [FAS2] | 3.31 ± 0.18 | 3.04 ± 0.11 | 3.06 ± 0.074 | 3.19 ± 0.1
53 | SCGEEEFFSTNWLSIFN [REC8] | 3.33 ± 0.098 | 3.29 ± 0.073 | 3.34 ± 0.1 | 2.96 ± 0.087
